The results in this text go back to article PMC8113883, “Wild-type sTREM2 blocks Aβ aggregation and neurotoxicity, but the Alzheimer's R47H mutant increases Aβ aggregation” (The Journal of Biological Chemistry, 2021).

The assay concerns the target T1, HiLyte Fluor 488-labeled Aβ42 oligomers (human, UniProt P05067 672-713, HiLyte Fluor 488 label (position not given)).
T1 construct: amyloid beta peptide 1-42 (Aβ42), human; cut product of the amyloid precursor protein; Oligomeric species of the 6 h aggregation mixture, told apart from monomers by photobleaching; also called oligomeric Aβ; Aβ oligomers; source: bought: AnaSpec; aggregated at 0.5 μM in PBS pH 7.4 for 6 h in a shaking incubator
Put plainly: single-molecule TIRF two-color coincidence detection; HiLyte Fluor 488 Aβ aggregated 6 h (0.5 μM, PBS pH 7.4), dye-labeled sTREM2 added and imaged; monomers and oligomers told apart by photobleaching; chance coincidence subtracted. Conditions: both partners purified.

B1: dye-labeled wild-type sTREM2 (TREM2 ectodomain) for TIRF imaging (domain or fragment, human, UniProt Q9NZC2 19-143, looked up)
chain: HNTTVFQGVAGQSLQVSCPYDSMKHWGRRKAWCRQLGEKGPCQRVVSTHNLWLLSFLRRWNGSTAITDDTLGGTLTITLRNLQPHDAGLYQCQSLHGSEADTLRKVLVEVLADPLDHRDAGDLWF
modifications: TAMRA dye (results) or AF647 (methods), position not stated
notes: TREM2, human, residues 19-143 (soluble ectodomain); also called TAMRA-dye labeled sTREM2; AF647-TREM2; source: Freestyle 293-F, transfected (pHLSec), purified from conditioned medium (IMAC, gel filtration); dye-labeled
For the molecule B1, the binding result is given as “binds”.
